Results as given in article doi:10.1101/2023.09.30.560296 (bioRxiv, 2023).
Several values for one entry are separate records, joined by “and”; a condition that tells them apart may be missing. Identical values can stand only once. Square brackets hold non-standard residues; d marks the D form. Ends that are not written are not given here. * marks the point of attachment. FITC = O=C1OC2(c3ccc(O)cc3Oc3cc(O)ccc32)c2ccc(NC(=S)*)cc21; pS = N[C@@H](COP(=O)(O)O)C(=O)O; Ahx = NCCCCCC(=O)O

B1: FITC-Ahx OPTN LIR peptide 169-185 (pS177) (peptide)
peptide: {FITC-Ahx}-NSSGSSED[pS]FVEIRMAE
B2: FITC-Ahx OPTN LIR peptide 169-185 (F178W) (peptide)
peptide: {FITC-Ahx}-NSSGSSEDSWVEIRMAE
B3: FITC-Ahx OPTN LIR peptide 169-185 (pS177 F178W) (peptide)
peptide: {FITC-Ahx}-NSSGSSED[pS]WVEIRMAE
B4: FITC-Ahx OPTN LIR peptide 169-185 (pS177 M183A) (peptide)
peptide: {FITC-Ahx}-NSSGSSED[pS]FVEIRAAE
B5: FITC-Ahx OPTN LIR peptide 169-185 (S177E) (peptide)
peptide: {FITC-Ahx}-NSSGSSEDEFVEIRMAE
B6: FITC-Ahx OPTN LIR peptide 169-185 (pS177 F178A) (peptide)
peptide: {FITC-Ahx}-NSSGSSED[pS]AVEIRMAE
B7: FITC-Ahx OPTN LIR peptide 169-185 (S177D) (peptide)
peptide: {FITC-Ahx}-NSSGSSEDDFVEIRMAE

Legend:
[1] = molecular target: T1, GST-fused LC3B (UniProt Q9GZQ8 1-120); assay: Microfluidic Diffusional Sizing
[2] = molecular target: T1, GST-fused LC3B; assay: SPR

Row | Binder | Kd [1] | Kd [2] [µM] | other results
1 | B1 | 14.3 µM and 13.7 µM | – | –
2 | B2 | 15.9 µM | – | –
3 | B3 | – | – | fold increase of binding affinity against pS177 [1]: 7 fold
4 | B4 | – | 36.7 | –
5 | B5 | 42.8 µM | – | –
6 | B6 | – | > 100 | fold increase of Kd against pS177 [1]: 5 fold
7 | B7 | 44.8 µM | 36.7 | –
